Data: PMC12781114, “Mechanistic and Molecular Dynamics Studies Reveal that Increased Loop 3 Mobility Alters Substrate Capture in an NADH:Quinone Oxidoreductase” (Biochemistry, 2025)

How the values were obtained:
[1] = target: T1, NADH:quinone oxidoreductase (NQO-P78G) (Pseudomonas aeruginosa, UniProt Q9I4V0, P78G); assay: anaerobic stopped-flow reductive half-reaction (flavin reduction at […] nm), hyperbolic fit; steady-state kinetics; assay type: biochemical
T1 construct: gene PA1024

[2] = tested on: COC1=C(OC)C(=O)C(C)=CC1=O; assay: purified protein; assay type: biochemical, Pseudomonas aeruginosa; conditions: pH 6.0, 25.0 °C

T1 sequence (Q9I4V0 whole entry P78G): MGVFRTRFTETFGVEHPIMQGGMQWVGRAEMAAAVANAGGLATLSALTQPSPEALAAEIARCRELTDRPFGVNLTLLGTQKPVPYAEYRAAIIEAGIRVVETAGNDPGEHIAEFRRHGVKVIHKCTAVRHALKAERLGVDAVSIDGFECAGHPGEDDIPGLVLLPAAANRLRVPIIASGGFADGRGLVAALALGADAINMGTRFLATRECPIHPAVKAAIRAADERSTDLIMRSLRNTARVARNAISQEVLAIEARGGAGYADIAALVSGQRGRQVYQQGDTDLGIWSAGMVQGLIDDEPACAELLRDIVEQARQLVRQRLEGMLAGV

NC(=O)C1=CN([C@@H]2O[C@H](COP(=O)(O)OP(=O)(O)OC[C@H]3O[C@@H](n4cnc5c(N)ncnc54)[C@H](O)[C@@H]3O)[C@@H](O)[C@H]2O)C=CC1 [NADH]
Kd [1]: 450 ± 40 µM

NADH:quinone oxidoreductase (NQO-WT) (Pseudomonas aeruginosa PAO1)
Km [2]: 35 ± 6 µM

NADH:quinone oxidoreductase (NQO-P78G) (Pseudomonas aeruginosa PAO1; P78G)
Km ([2]; FMN active site pocket, binds the reduced enzyme (ping-pong bi-bi)): 10 ± 1 µM
